By Kd is commonly meant the constant that tells how readily two partners part at equilibrium.

First the molecules themselves.
T1: MBP-AoXlnR (MBP-XlnR1-183) (Aspergillus oryzae (strain  …, UniProt Q2UD93 1-183))
T1 sequence: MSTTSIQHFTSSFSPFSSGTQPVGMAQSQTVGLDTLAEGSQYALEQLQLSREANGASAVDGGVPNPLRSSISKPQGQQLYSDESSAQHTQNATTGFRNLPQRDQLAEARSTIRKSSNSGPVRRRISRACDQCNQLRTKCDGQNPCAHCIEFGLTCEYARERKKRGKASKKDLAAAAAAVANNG

T2: MBP-AoXlnR (MBP-XlnR1-183) (Aspergillus oryzae (strain not given for the expression construct; RIB40 used for genomic DNA)) (UniProt Q2UD93)
T2 sequence: T1 sequence

B1: egl-363 (dsDNA)
DNA 1: CAACCCGAGGGTCGATCGACTCCGGCATTAGCTGCCCAGCAGGTATACAGCCTTTTTTTTTTTTTTTTTT
DNA 2: AAAAAAAAAAAAAAAAAAGGCTGTATACCTGCTGGGCAGCTAATGCCGGAGTCGATCGACCCTCGGGTTG
B2: egl-617 (dsDNA)
DNA 1: GCAGCGGCGAAAGGTGCAGGATGGCTGACGCTCAGTTTAATGAGCAGTGGCCTTTTTTTTTTTTTTTTTT
DNA 2: AAAAAAAAAAAAAAAAAAGGCCACTGCTCATTAAACTGAGCGTCAGCCATCCTGCACCTTTCGCCGCTGC
B3: abf-687 (abf-680 in Table S1) (dsDNA)
DNA 1: GCAGAAGCTCTTGCAGATCTGTCGGCTGAAGGTTTGTTTTAGGCCAAATGCCTTTTTTTTTTTTTTTTTT
DNA 2: AAAAAAAAAAAAAAAAAAGGCATTTGGCCTAAAACAAACCTTCAGCCGACAGATCTGCAAGAGCTTCTGC
B4: egl-242 (dsDNA)
DNA 1: GGAGACTCCTCTCATCTTGCTGGGCTGAAGACTCGGTCAATACCATGATACCTTTTTTTTTTTTTTTTTT
DNA 2: AAAAAAAAAAAAAAAAAAGGTATCATGGTATTGACCGAGTCTTCAGCCCAGCAAGATGAGAGGAGTCTCC
B5: abf-830 (abf-837 in Table S1) (dsDNA)
DNA 1: TTAAACACATGAGACACACTCGCGGCTGAATGGTTTCGGGTTTTAGCCGGCCTTTTTTTTTTTTTTTTTT
DNA 2: AAAAAAAAAAAAAAAAAAGGCCGGCTAAAACCCGAAACCATTCAGCCGCGAGTGTGTCTCATGTGTTTAA

The first data set addresses T1, MBP-AoXlnR (MBP-XlnR1-183). Kind of data set: BLI; BLI (BLItz, streptavidin sensors), Kinetics Buffer 10x (Pall-ForteBio; composition and pH not stated), room temperature, DNA immobilized, 1:1 global fit. The following applies: protein: recombinant; label: 5' biotin on bio-polyA strand (complement of strand 1, S14 extended); blunt.
In the case of B1, the Kd was 68.7 nM.

With B2, the Kd was 48.4 nM.

B3: the Kd was 133 nM.

Take B4: the Kd was determined as 40.6 nM.

With B5, the Kd was 144 nM.

The target in the next data set is T2, MBP-AoXlnR (MBP-XlnR1-183) (Aspergillus oryzae (strain not given for the expression construct; RIB40 used for genomic DNA)). Kind of data set: BLI. The following applies: BLI (BLItz, streptavidin sensors), Kinetics Buffer 10x (Pall-ForteBio; composition and pH not stated), room temperature, DNA immobilized, 1:1 global fit.
For “GGAATTCGGGGTATTAGGCTAAACGTGGCTATCATGGTGAAACAGGCTGAAGAACAGTTCCTGGCAGGTCAAATGGGAATCTAGAGC (double strand) [XRE-WT]”, the dissociation constant Kd was determined as 656 nM.

Turning to XRE-WT, the Kd is 656 nM.

Molecule “CCAGCCAACCTTCAGCTCAGCAATGCATGCCTTTTTCCCTTTTACCCATTTACCCAGGAATAATGGCATCCTCAGGGTTTCAGCATCTGCT (double strand) [xynF1_upstream_1]” came in with a Kd of 311 nM.

Values taken from PMC6323846, “Comprehensive investigation of the gene expression system regulated by an Aspergillus oryzae transcription factor XlnR using integrated mining of gSELEX-Seq and microarray data”.
